# Reference: article PMC6110258
# What was measured:
# [1] = biological target: H5-Strep-tag (Strep-tag II-fused haemagglutinin H5 ectodomain of A/duck/Viet Nam/TG24-01/2005 (H5N1) (influenza A virus A/duck/Viet Nam/TG24-01/2005 (H5N1) | not stated)); assay: cross-linking
# [2] = biological target: H5-Strep-tag (Strep-tag II-fused haemagglutinin H5 ectodomain of A/duck/Viet Nam/TG24-01/2005 (H5N1) (influenza A virus A/duck/Viet Nam/TG24-01/2005 (H5N1) | not stated)); assay: SEC
substance,measurement,setting,value
H5-Strep-tag (Strep-tag II-fused haemagglutinin H5 ectodomain of A/duck/Viet Nam/TG24-01/2005 (H5N1),stoichiometry N,[1],3
same,stoichiometry N,[2],3
